Our source for the stoichiometry N values is publication PMC1769499.

The target in experiment [1] is recombinant Lhcb1 protein (LHCII apoprotein reconstituted in vitro with chlorophylls and xanthophylls). The experiment is described as follows: sucrose density gradient ultracentrifugation; in vitro trimerization of Lhcb1 reconstituted with lutein as only xanthophyll (100% lutein) plus Chl a and b; bound to Ni2+ column, washed with 0.1 mg/ml PG, 0.06% β-DM, 0.2 M NaCl, 20 mM phosphate pH 7.5, 10 mM imidazole; eluted, trimers separated from monomers on a sucrose gradient.

The target is the same in experiment [2]. Put plainly: sucrose density gradient ultracentrifugation; in vitro trimerization of Lhcb1 reconstituted with a mix of all xanthophylls (L,V,N) plus Chl a and b; bound to Ni2+ column, washed with 0.1 mg/ml PG, 0.06% β-DM, 0.2 M NaCl, 20 mM phosphate pH 7.5, 10 mM imidazole; eluted, trimers separated from monomers on a sucrose gradient.

A word on the stoichiometry N: it is a count of units in the complex or per binding partner. Consider “recombinant Lhcb1 protein (LHCII apoprotein reconstituted in vitro with chlorophylls and xanthophylls) (natural protein)”, for which the stoichiometry N in experiment [1] and in experiment [2] was 3 in each case.
